For one data set, the target named is T1, hGLP-1R (Homo sapiens, UniProt P43220).
T1 construct: expressed in transfected cells
Put plainly: cAMP functional assay, cells expressing human GLP-1 receptor (primary assay). Type of data set: cell-based. As to conditions: read-out: Primary assay EC50 (n = 2) hGLP-1R; n = 2.

The test system of data set [1] is DPP-IV, Neprilysin, Chymotrypsin, Trypsin, Pepsin. Put plainly: enzyme resistance, protease panel (Table 2 description). The format is in vitro ADME. How it is done:
Peptides for evaluation were prepared to a concentration of 1.0 mg/mL solutions in either pure water, sterile saline for injection (0.9% w/v NaCl/water) or 1× PBS (Dulbecco). 100 μL (100 μg/mL peptide) of these solutions was added to 900 μL of each protease solution. Additional experiments were performed examining protein degradation during exposure to serum and gastric fluid. For serum studies, peptides were incubated with 50% female Sprague-Dawley strain rat serum (SD rat serum). For gastric fluid studies, peptides were incubated 1:1 (volume:volume), fresh rat gastric fluid.
The peptide and enzyme (or serum or gastric fluid) were co-incubated in a temperature regulated water bath at 37° C. for the duration of the experiment. During each experiment 100 μL aliquots (10 μg peptide) of the incubated peptide-enzyme mixture were withdrawn periodically, quenched by addition of an equal volume of 5% TFA (v/v) in 1:1 water/acetonitrile to arrest proteolytic activity, and analyzed by liquid chromatography-mass spectrometry (LC/MS): Agilent Polaris C8-A column (4.6×100 mm, 3 micron) using a linear binary gradient of 10-90% MeCN (0.1% TFA v/v) in water (0.1% TFA v/v) over 30 minutes at 1.5 mL min^−1 at ambient temperature. Analytes were detected by both UV absorption at 210 nm and ionization using a Waters 3100 mass detector (ESI^+ mode). New peptidic species (fragments) derived from enzymatic cleavage of peptides were analyzed post-process, and their molecular masses were used to identify the precise cleavage position (highlighting the scissile bond in each case).

*1 amine or outer side, *2 acyl side, *3 side chain or, on linkers, in order; H or OH if unused. Where a SMILES comes first, the peptide text is derived from it. Primed or numbered codes have the meaning given here. Where no end group is shown, it is not given here. Side-chain parts run from the residue outwards. [ ]: non-standard residue; d: D form. The star is where a group is joined. ξ: configuration not given here. Palmitoyl(16-(5-tetrazolyl)) = O=C(CCCCCCCCCCCCCCCc1nnn[nH]1)*; γGlu = O=C(O)[C@H](CCC(=O)[*:2])N[*:1]; Palmitoyl = CCCCCCCCCCCCCCCC(=O)*; αMeF = C[C@](N)(Cc1ccccc1)C(=O)O; ξαMeF = CC(N)(Cc1ccccc1)C(=O)O; αMeK = C[C@](N)(CCCCN)C(=O)O; ξαMeK = CC(N)(CCCCN)C(=O)O; PEG2′ = not defined here; Aib = CC(C)(N)C(=O)O

T1 sequence (P43220 24-463): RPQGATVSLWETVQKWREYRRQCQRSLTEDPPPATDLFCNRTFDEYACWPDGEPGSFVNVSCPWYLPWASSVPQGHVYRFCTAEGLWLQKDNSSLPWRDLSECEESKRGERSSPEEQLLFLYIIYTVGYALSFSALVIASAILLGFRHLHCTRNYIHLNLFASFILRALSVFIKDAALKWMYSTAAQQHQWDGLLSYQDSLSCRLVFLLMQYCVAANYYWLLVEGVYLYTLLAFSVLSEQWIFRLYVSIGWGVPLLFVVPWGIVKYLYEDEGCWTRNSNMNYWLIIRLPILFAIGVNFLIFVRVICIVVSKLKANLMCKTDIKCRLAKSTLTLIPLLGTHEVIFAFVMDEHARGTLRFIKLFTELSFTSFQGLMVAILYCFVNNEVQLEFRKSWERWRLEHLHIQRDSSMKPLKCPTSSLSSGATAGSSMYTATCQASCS

As for “H-(Aib)^2-EG-(S)^5-(α-MeF)^6-TSDV^10 SS-(α-MeF)^13-LE^15 GQAA-(α-MeK)^20 E-(α-MeF)^22-IA-(α-MeF)^25-(V)^26-V-(α-MeK)^28-G-(G)^30-K(Ε-Tetrazolylpalm) (H[Aib]EGS[αMeF]TSDVSS[αMeF]LEGQAA[αMeK]E[αMeF]IA[αMeF]VV[αMeK]GGK(Palmitoyl(16-(5-tetrazolyl))); not fully specified (C-terminus); printed as H-(Aib)^2-EG-(S)^5-(α-MeF)^6-TSDV^10 SS-(α-MeF)^13-LE^15 GQAA-(α-MeK)^20 E-(α-MeF)^22-IA-(α-MeF)^25-(V)^26-V-(α-MeK)^28-G-(G)^30-K(Ε-Tetrazolylpalm)) [SEQ ID NO: 53]”, the EC50 with hGLP-1R stood at 0.0451 nM. In addition, the “enzyme resistance (DPP-IV, Neprilysin, Chymotrypsin, Trypsin, Pepsin)” value in data set [1] is given as “Excellent enzyme resistance”.
On to `CCCCCCCCCCCCCCCC(=O)N[C@@H](CCC(=O)NCCCC[C@H](NC(=O)CNC(=O)CNC(=O)C(C)(CCCCN)NC(=O)[C@@H](NC(=O)[C@@H](NC(=O)C(C)(Cc1ccccc1)NC(=O)[C@H](C)NC(=O)[C@@H](NC(=O)C(C)(Cc1ccccc1)NC(=O)[C@H](CCC(=O)O)NC(=O)C(C)(CCCCN)NC(=O)[C@H](C)NC(=O)[C@H](C)NC(=O)[C@H](CCC(N)=O)NC(=O)CNC(=O)[C@H](CCC(=O)O)NC(=O)[C@H](CC(C)C)NC(=O)C(C)(Cc1ccccc1)NC(=O)[C@H](CO)NC(=O)[C@H](CO)NC(=O)[C@@H](NC(=O)[C@H](CC(=O)O)NC(=O)[C@H](CO)NC(=O)[C@@H](NC(=O)C(C)(Cc1ccccc1)NC(=O)[C@H](CO)NC(=O)CNC(=O)[C@H](CCC(=O)O)NC(=O)C(C)(C)NC(=O)[C@@H](N)Cc1c[nH]cn1)[C@@H](C)O)C(C)C)[C@@H](C)CC)C(C)C)C(C)C)C(N)=O)C(=O)O` (stereo partly drawn) [SEQ ID NO: 54, H-(Aib)^2-EG-(S)^5-(α-MeF)^6-TSDV^10 SS-(α-MeF)^13-LE^15 GQAA-(α-MeK)^20 E-(α-MeF)^22-IA-(α-MeF)^25-(V)^26-V-(α-MeK)^28-G-(G)^30-K(Ε-γ-E-Palm)] (H-H[Aib]EGS[ξαMeF]TSDVSS[ξαMeF]LEGQAA[ξαMeK]E[ξαMeF]IA[ξαMeF]VV[ξαMeK]GGK([γGlu-Palmitoyl])-NH2), for which, in data set [1], the “enzyme resistance (DPP-IV, Neprilysin, Chymotrypsin, Trypsin, Pepsin)” value is reported as “Excellent enzyme resistance”.
Still for that read-out and setting: as for “H-(Aib)^2-EG-(S)^5-(α-MeF)^6-TSDV^10 SS-(α-MeF)^13-LE^15 GQAA-(α-MeK)^20 E-(α-MeF)^22-IA-(α-MeF)^25-(V)^26-V-(α-MeK)^28-G-(G)^30-K(Ε-γ-E-(PEG)^2-Tetrazolylpalm) (H[Aib]EGS[αMeF]TSDVSS[αMeF]LEGQAA[αMeK]E[αMeF]IA[αMeF]VV[αMeK]GGK([γGlu-PEG2′-Palmitoyl(16-(5-tetrazolyl))]); not fully specified; printed as H-(Aib)^2-EG-(S)^5-(α-MeF)^6-TSDV^10 SS-(α-MeF)^13-LE^15 GQAA-(α-MeK)^20 E-(α-MeF)^22-IA-(α-MeF)^25-(V)^26-V-(α-MeK)^28-G-(G)^30-K(Ε-γ-E-(PEG)^2-Tetrazolylpalm)) [SEQ ID NO: 56]”, the entry is “Excellent enzyme resistance”; as for “H-(Aib)^2-EG-(S)^5-(α-MeF)^6-TSDV^10 SS-(α-MeF)^13-LE^15 GQAA-(α-MeK)^20 E-(α-MeF)22^-IA-(α-MeF)^25-(V)^26-V-(α-MeK)^28-G-(G)^30-K(Ε-γ-E-Tetrazolylpalm) (H[Aib]EGS[αMeF]TSDVSS[αMeF]LEGQAA[αMeK]E[αMeF]IA[αMeF]VV[αMeK]GGK([γGlu-Palmitoyl(16-(5-tetrazolyl))])) [SEQ ID NO: 55]”, “Excellent enzyme resistance”.

A word on the EC50: it is the concentration at which the effect is half-maximal.

(Values after patent US20160318987A1 (MEDIMMUNE LIMITED, priority 2013, published 2016).)
